{"source": "patent EP4019546A1", "binders": {"B1": {"name": "PRO1643 (scFv, from another filing)", "scFv": "AFQLTQSPSSLSASVGDRVTITCQASQSIDSWLAWYQQKPGKPPKLLIYQASKLASGVPSRFSGSGSGTDYTLTISSLQPEDFATYYCQTYYGGGHIGWGFGTGTKVTVLGGGGGSGGGGSGGGGSGGGGSQSQLVESGGGLVQPGGSLRLSCAASGFSFSANYWICWVRQAPGKGLEWIVCIYIGSRADTYYAPWAKGRFTISKDNSKNTVYLQMNSLRAEDTAVYFCARFSSGIYDLDRFFLWGQGTLVTVSS"}}, "key": {"[1]": {"target": "human IL-31 (human) (UniProt Q6EBC2)", "sequence (Q6EBC2 24-164 limits assumed)": "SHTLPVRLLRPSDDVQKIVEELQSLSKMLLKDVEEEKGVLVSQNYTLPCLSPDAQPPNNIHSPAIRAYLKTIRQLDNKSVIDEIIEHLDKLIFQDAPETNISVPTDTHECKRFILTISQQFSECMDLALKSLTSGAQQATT", "test": "cell-based or functional assay"}, "[2]": {"target": "human IL-31-His (human) (UniProt Q6EBC2)", "sequence (Q6EBC2 24-164 limits assumed)": "as above", "test": "SPR (Biacore T200), IL-31-His captured via anti-His antibody, scFv as analyte, 1:1 model"}, "[3]": {"target": "human IL-31 (human) (UniProt Q6EBC2)", "test": "competitive ELISA, IL-31RA coated, biotinylated IL-31 preincubated with scFv; competitor IL-31RA"}, "[4]": {"target": "human IL-31 (human) (UniProt Q6EBC2)", "test": "cell-based or functional assay", "remark": "listed apart in the source"}, "[5]": {"target": "human IL-31-His (human) (UniProt Q6EBC2)", "test": "SPR (Biacore T200), IL-31-His captured via anti-His antibody, scFv as analyte, 1:1 model", "remark": "listed apart in the source"}}, "note": "Where two headings read alike, the source gives them in different places."}
{"binder": "B1", "values": [{"measurement": "IC50, neutralization of hIL-31-induced signaling in IL-31RA/OSMR dimerization assay", "setting": "[1]", "result": 8.08, "unit": "ng/mL"}, {"measurement": "rel. IC50 (IC50, BMS-981164/IC50, test sample), IL-31RA/OSMR dimerization assay", "setting": "[1]", "result": 0.85}, {"measurement": "Kd", "setting": "[2]", "result": 0.505, "unit": "nM"}, {"measurement": "koff", "setting": "[2]", "result": 0.000447, "unit": "s⁻¹"}, {"measurement": "kon", "setting": "[2]", "result": 884000, "unit": "M⁻¹ s⁻¹"}, {"measurement": "IC50", "setting": "[3]", "result": 4.58, "unit": "ng/mL"}, {"measurement": "rel. IC50 (IC50, BMS-981164/IC50, test sample)", "setting": "[3]", "result": 2.04}, {"measurement": "IC50, neutralization of hIL-31-induced signaling in IL-31RA/OSMR dimerization assay", "setting": "[4]", "result": 11.1, "unit": "ng/mL"}, {"measurement": "rel. IC50 (IC50, BMS-981164/IC50, test sample), IL-31RA/OSMR dimerization assay", "setting": "[4]", "result": 1.16}, {"measurement": "Kd", "setting": "[5]", "result": 1.13, "unit": "nM"}, {"measurement": "koff", "setting": "[5]", "result": 0.000653, "unit": "s⁻¹"}, {"measurement": "kon", "setting": "[5]", "result": 579000, "unit": "M⁻¹ s⁻¹"}]}
